Assay results taken from PMC9174231.

Molecular target: HA-tagged DDX6 (designed around the RecA2 region) (UniProt P26196)
Assay: grating-coupled interferometry (GCI); Creoptix WAVEsystem; DDX6 protein immobilised on the sensor chip by amine coupling, 4E-T protein as analyte; PBS/0.01% Tween20; regeneration-free kinetics; blank without DDX6 as reference

Chain of UniProt P26196 (P26196 whole entry): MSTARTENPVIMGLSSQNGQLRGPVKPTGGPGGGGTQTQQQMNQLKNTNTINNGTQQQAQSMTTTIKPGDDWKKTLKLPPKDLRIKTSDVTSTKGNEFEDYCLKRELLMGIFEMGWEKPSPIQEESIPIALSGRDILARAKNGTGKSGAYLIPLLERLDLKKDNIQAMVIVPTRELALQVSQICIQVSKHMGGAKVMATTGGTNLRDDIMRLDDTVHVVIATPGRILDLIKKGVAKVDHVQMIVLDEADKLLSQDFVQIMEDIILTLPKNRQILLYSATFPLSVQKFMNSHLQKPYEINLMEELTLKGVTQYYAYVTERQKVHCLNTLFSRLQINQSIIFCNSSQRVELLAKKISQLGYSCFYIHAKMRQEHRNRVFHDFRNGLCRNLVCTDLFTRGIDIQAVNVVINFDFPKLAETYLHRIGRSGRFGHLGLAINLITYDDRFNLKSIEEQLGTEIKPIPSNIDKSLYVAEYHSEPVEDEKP

## HA-tagged 4E-T (designed around the CHD region) (from UniProt Q9NRA8 1-985) (domain or fragment)
  Kd: 0.774 µM
  koff: 0.000278 s⁻¹
  kon: 359 M⁻¹ s⁻¹
